The values that follow come from paper PMC3318979.

Test [1] has as its target mitochondrial respiratory chain complex I (human) (UniProt Q16795). Put plainly: native gel or EMSA. (In general: A gel shift assay detects complexes by their altered migration in electrophoresis.)
The target in test [2] is mitochondrial respiratory chain complex III dimer (human) (UniProt P22695). Briefly: native gel or EMSA.
Sequence of UniProt P22695 (P22695 whole entry, looked up, one chain of several): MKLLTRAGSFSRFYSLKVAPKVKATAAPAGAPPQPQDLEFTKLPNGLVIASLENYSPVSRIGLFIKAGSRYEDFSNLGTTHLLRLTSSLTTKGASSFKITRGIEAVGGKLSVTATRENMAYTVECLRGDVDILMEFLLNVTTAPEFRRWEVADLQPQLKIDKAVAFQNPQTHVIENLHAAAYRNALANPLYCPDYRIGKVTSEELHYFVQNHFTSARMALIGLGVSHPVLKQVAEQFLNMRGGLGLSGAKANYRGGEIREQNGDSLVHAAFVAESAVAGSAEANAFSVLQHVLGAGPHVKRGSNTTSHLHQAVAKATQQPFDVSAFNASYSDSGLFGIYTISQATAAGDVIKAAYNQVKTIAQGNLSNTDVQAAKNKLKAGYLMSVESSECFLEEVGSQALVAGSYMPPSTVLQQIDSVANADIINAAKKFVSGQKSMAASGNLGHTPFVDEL

Sequence of UniProt Q16795 (Q16795 whole entry, looked up, one chain of several): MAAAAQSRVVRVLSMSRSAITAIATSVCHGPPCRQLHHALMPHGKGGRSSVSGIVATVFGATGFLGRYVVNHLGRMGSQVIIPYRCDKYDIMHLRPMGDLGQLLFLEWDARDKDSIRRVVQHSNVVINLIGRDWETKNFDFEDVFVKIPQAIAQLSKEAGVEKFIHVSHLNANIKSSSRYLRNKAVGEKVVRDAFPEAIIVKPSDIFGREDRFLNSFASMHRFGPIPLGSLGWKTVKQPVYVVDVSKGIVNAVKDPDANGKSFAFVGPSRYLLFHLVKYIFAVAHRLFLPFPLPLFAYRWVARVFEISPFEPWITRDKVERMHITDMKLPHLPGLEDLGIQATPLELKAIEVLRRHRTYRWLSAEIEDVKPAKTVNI

Substance “mitochondrial respiratory chain complex III dimer (from UniProt P22695 15-453; P47985 79-274)” came in with a percent of the subunits' signal in I+III2+IVn supercomplexes in test [1] of 50%. On to “mitochondrial respiratory chain complex IV (from UniProt P00395 1-513; P00403 1-227; P13073 23-169; P20674 42-150; P09669 1-75)”, for which, in test [2], the percent of the subunits' signal in supercomplex III2+IV was 1 to 3%.
